± gives the uncertainty stated by the source.
Experiment: self-splicing fitness, log relative to wild type (ln ratio); higher = more splicing; Tetrahymena group I intron in knt gene, E. coli kanamycin selection, DiMSum; sequences stand for … in CUCUCU…GGAGGGAAAAGUUAUCAGGCAUGCACCUGGUAGCUAGUCUUUAAACCAAUAGAUUGCAUCGGUUUAAAAGGCAAGACCGUCAAAUUGCGGGAAAGGGGUCAACAGCCGUUCAGUACCAAGUCUCAGGGGAAACUUUGAGAUGGCCUUGCAAAGGGUAUGGUAAUAAGCUGACGGACAUGGUCCUAACCACGCAGCCAAGUCCUAAGUCAACAGAUCUUCUGUUGAUAUGGAUGCAGUUCACAGACUAAAUGUCGGUCGGGGAAGAUGUAUUCUUCUCAUAAGAUAUAGUCGGACCUCUCCUUAAUGGGAGCUAGCGGAUGAAGUGAUGCAACACUGGAGCCGCUGGGAACUAAUUUGUAUGCGAAAGUAUAUUGAUUAGUUUUGGAGUACUCGUGGUCG
Outline: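 DiMSum derived fitness as the error-weighted combination of fold changes across replicates, kanamycin versus no kanamycin, normalised to wild type. E. coli BL21(DE3) held the library, which randomised all eight P1ex-region intron nucleotides within the knt kanamycin-resistance gene on pET-22b(+). Six replicate transformations grew overnight at 37°C or 30°C on LB agar with or without 25 μg/mL kanamycin, also containing 100 μg/mL carbenicillin, 50 μM IPTG and 0.2% rhamnose, and pooled colonies were amplicon-sequenced on an Illumina HiSeq 2500.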

Sequence	self-splicing fitness (ln) (30 °C)	self-splicing fitness (ln) (37 °C)
CGCCAGCAAUAUUACGCCCG	-1.47 ± 0.14	-0.959 ± 0.19
CGCCAGCAAUAUUACGCCUG	-1.21 ± 0.1	-0.608 ± 0.096
CGCCAGCAAUAUUACGCGCC	-1.82 ± 0.27	-1.15 ± 0.27
CGCCAGCAAUAUUACGCGGG	-4.25 ± 0.2	-3.11 ± 0.24
CGCCAGCAAUAUUACGGACU	-0.845 ± 0.066	0.157 ± 0.091
CGCCAGCAAUAUUACGGGCA	-0.258 ± 0.095	0.189 ± 0.095
CGCCAGCAAUAUUACGGGGG	-3 ± 0.16	-2.17 ± 0.2
CGCCAGCAAUAUUACGGUAC	-2.83 ± 0.095	-1.52 ± 0.091
CGCCAGCAAUAUUACGUAGC	-2.36 ± 0.17	-3.11 ± 0.33
CGCCAGCAAUAUUACGUAUG	-0.516 ± 0.055	-0.0225 ± 0.074
CGCCAGCAAUAUUACGUUGA	-2.84 ± 0.11	-2.83 ± 0.13
CGCCAGCAAUAUUACGUUGU	-3.62 ± 0.14	-3.07 ± 0.15
CGCGAGCAAUAUUACGAAUG	-1.9 ± 0.095	-0.424 ± 0.13
CGCGAGCAAUAUUACGAGCC	-3.49 ± 0.32	-1.4 ± 0.28
CGCGAGCAAUAUUACGAGGU	-2.22 ± 0.25	-1.93 ± 0.23
CGCGAGCAAUAUUACGAGUC	-2.7 ± 0.38	-1.57 ± 0.29
CGCGAGCAAUAUUACGAUGA	-3.39 ± 0.32	-1.7 ± 0.18
CGCGAGCAAUAUUACGAUUU	-3.35 ± 0.21	-3.39 ± 0.24
CGCGAGCAAUAUUACGCCGU	-3.93 ± 0.47	-3.01 ± 0.4

Sequence	self-splicing fitness (ln) (30 °C)	self-splicing fitness (ln) (37 °C)
CGCGAGCAAUAUUACGCGAG	-3.97 ± 0.37	-2.01 ± 0.41
CGCGAGCAAUAUUACGCGUG	-2.29 ± 0.14	-2.67 ± 0.15
CGCGAGCAAUAUUACGCGUU	-3.07 ± 0.25	-2.74 ± 0.34
CGCGAGCAAUAUUACGCUGA	-2.03 ± 0.22	-1.78 ± 0.35
CGCGAGCAAUAUUACGGAUA	-1.66 ± 0.27	–
CGCGAGCAAUAUUACGGCAU	-2.86 ± 0.17	-1.43 ± 0.12
CGCGAGCAAUAUUACGGCUA	-1.23 ± 0.15	-1.98 ± 0.16
CGCGAGCAAUAUUACGGGAU	-4.13 ± 0.23	-2.59 ± 0.21
CGCGAGCAAUAUUACGUCUG	-0.412 ± 0.067	-0.178 ± 0.073
CGCGAGCAAUAUUACGUGGA	-2.79 ± 0.16	-3.01 ± 0.34
CGCGAGCAAUAUUACGUGUU	-3.1 ± 0.15	-2.75 ± 0.17
CGCGAGCAAUAUUACGUUGG	-3.22 ± 0.17	-2 ± 0.2
CGCGAGCAAUAUUACGUUUC	-4.02 ± 0.27	-2.06 ± 0.25
CGCGAGCAAUAUUACGUUUU	-4.56 ± 0.46	-2.17 ± 0.2
CGCUAGCAAUAUUACGAACG	-2.16 ± 0.099	-1.1 ± 0.11
CGCUAGCAAUAUUACGAAUU	-2.77 ± 0.16	-2.58 ± 0.28
CGCUAGCAAUAUUACGACAC	-3.1 ± 0.23	-1.33 ± 0.21
CGCUAGCAAUAUUACGACUU	-2.41 ± 0.12	-0.983 ± 0.15
